Test results from PMC6689086.
Values belong to the molecule of their own block, whether it stands above or below them.

Assays:
[1] = molecular target: Hsc82 C61-ATTO 550 (S. cerevisiae) (UniProt P15108)
[2] = molecular target: Hsp82 C61-ATTO 550 (S. cerevisiae) (UniProt P02829)
[3] = molecular target: Hsc82 C61-ATTO 550 (S. cerevisiae) (UniProt P15108); experiment: FRET or BRET; FRET chase: tenfold excess of unlabeled Hsp90 added to the FRET complex preequilibrated 30 min with 2 mM ATP, 30 °C; apparent
[4] = molecular target: Hsc82 C61-ATTO 550 (S. cerevisiae) (UniProt P15108); experiment: FRET or BRET; subunit exchange after mixing of NTD- and MD-labeled dimers, no nucleotide; standard buffer (40 mM HEPES pH 7.5, 150 mM KCl, 5 mM MgCl2), 30 °C
[5] = molecular target: Hsc82 C61-ATTO 550 (S. cerevisiae) (UniProt P15108); experiment: FRET or BRET; FRET chase: tenfold excess of unlabeled Hsp90 added to the preformed FRET complex (400 nM), without nucleotide, 30 °C; apparent
[6] = molecular target: Hsp82 protomer of the NM-FRET heterodimer (S. cerevisiae) (UniProt P02829); experiment: FRET or BRET; subunit exchange after mixing of NTD- and MD-labeled dimers, no nucleotide; standard buffer (40 mM HEPES pH 7.5, 150 mM KCl, 5 mM MgCl2), 30 °C
[7] = molecular target: Hsp82 C61-ATTO 550 (S. cerevisiae) (UniProt P02829); experiment: FRET or BRET; FRET chase: tenfold excess of unlabeled Hsp90 added to the FRET complex preequilibrated 30 min with 2 mM ATP, 30 °C; apparent
[8] = molecular target: Hsp82 C61-ATTO 550 (S. cerevisiae) (UniProt P02829); experiment: FRET or BRET; subunit exchange after mixing of NTD- and MD-labeled dimers, no nucleotide; standard buffer (40 mM HEPES pH 7.5, 150 mM KCl, 5 mM MgCl2), 30 °C

ATPγS-induced closing rate kapp of the Hsc82 NM-FRET dimer (C61-ATTO 550 with C381-ATTO 488 protomers) with 4 µM Cpr6, percentage of kapp without co-chaperone [1]: 108%
ATPγS-induced closing rate kapp of the Hsp82 NM-FRET dimer (C61-ATTO 550 with C385-ATTO 488 protomers) with 4 µM Cpr6, percentage of kapp without co-chaperone [2]: 239%
Molecule: Cpr6 (from UniProt P53691 1-371) (natural protein)

reopening of closed state rate, with ATP (kapp as headed; apparent half-life by the legend) [3]: 0.7 min⁻¹
subunit exchange rate (kse) [4]: 0.037 s⁻¹
reopening of closed state rate, without nucleotide (t½) [5]: 32 s
Molecule: Hsc82 C381-ATTO 488 (from UniProt P15108 1-705) (natural protein)

subunit exchange rate (kse) [6]: 0.03 s⁻¹
Molecule: Hsc82 protomer of the NM-FRET heterodimer (from UniProt P15108 1-705) (natural protein)

reopening of closed state rate, with ATP (kapp as headed; apparent half-life by the legend) [7]: 0.7 min⁻¹
subunit exchange rate (kse) [8]: 0.034 s⁻¹
Molecule: Hsp82 C385-ATTO 488 (from UniProt P02829 1-709) (natural protein)

ATPγS-induced closing rate kapp of the Hsc82 NM-FRET dimer (C61-ATTO 550 with C381-ATTO 488 protomers) with 4 µM Sba1, percentage of kapp without co-chaperone [1]: 78%
Molecule: p23/Sba1 (from UniProt P28707 1-216) (natural protein)

ATPγS-induced closing rate kapp of the Hsc82 NM-FRET dimer (C61-ATTO 550 with C381-ATTO 488 protomers) with 4 µM Sti1, percentage of kapp without co-chaperone [1]: 19%
ATPγS-induced closing rate kapp of the Hsp82 NM-FRET dimer (C61-ATTO 550 with C385-ATTO 488 protomers) with 4 µM Sti1, percentage of kapp without co-chaperone [2]: 40%
B1: Sti1 (natural protein)
chain: MSLTADEYKQQGNAAFTAKDYDKAIELFTKAIEVSETPNHVLYSNRSACYTSLKKFSDALNDANECVKINPSWSKGYNRLGAAHLGLGDLDEAESNYKKALELDASNKAAKEGLDQVHRTQQARQAQPDLGLTQLFADPNLIENLKKNPKTSEMMKDPQLVAKLIGYKQNPQAIGQDLFTDPRLMTIMATLMGVDLNMDDINQSNSMPKEPETSKSTEQKKDAEPQSDSTTSKENSSKAPQKEESKESEPMEVDEDDSKIEADKEKAEGNKFYKARQFDEAIEHYNKAWELHKDITYLNNRAAAEYEKGEYETAISTLNDAVEQGREMRADYKVISKSFARIGNAYHKLGDLKKTIEYYQKSLTEHRTADILTKLRNAEKELKKAEAEAYVNPEKAEEARLEGKEYFTKSDWPNAVKAYTEMIKRAPEDARGYSNRAAALAKLMSFPEAIADCNKAIEKDPNFVRAYIRKATAQIAVKEYASALETLDAARTKDAEVNNGSSAREIDQLYYKASQQRFQPGTSNETPEETYQRAMKDPEVAAIMQDPVMQSILQQAQQNPAALQEHMKNPEVFKKIQTLIAAGIIRTGR

ATPγS-induced closing rate kapp of the Hsc82 NM-FRET dimer (C61-ATTO 550 with C381-ATTO 488 protomers) with 4 µM Aha1, percentage of kapp without co-chaperone [1]: 616%
ATPγS-induced closing rate kapp of the Hsp82 NM-FRET dimer (C61-ATTO 550 with C385-ATTO 488 protomers) with 4 µM Aha1, percentage of kapp without co-chaperone [2]: 868%
B2: Aha1 (natural protein)
chain: MVVNNPNNWHWVDKNCIGWAKEYFKQKLVGVEAGSVKDKKYAKIKSVSSIEGDCEVNQRKGKVISLFDLKITVLIEGHVDSKDGSALPFEGSINVPEVAFDSEASSYQFDISIFKETSELSEAKPLIRSELLPKLRQIFQQFGKDLLATHGNDIQVPESQVKSNYTRGNQKSSFTEIKDSASKPKKNALPSSTSTSAPVSSTNKVPQNGSGNSTSIYLEPTFNVPSSELYETFLDKQRILAWTRSAQFFNSGPKLETKEKFELFGGNVISELVSCEKDKKLVFHWKLKDWSAPFNSTIEMTFHESQEFHETKLQVKWTGIPVGEEDRVRANFEEYYVRSIKLTFGFGAVL
